Laboratory results as given in patent US20240067742A1 (4C BIOMED, published 2024).
Where a chain is given by its changes, count along the chain named. Names may count otherwise.

T1: His-tagged human HVEM (human, UniProt Q92956 39-202)
T1 construct: extracellular domain; also called His-tagged HVEM (Acro Biosystems); HVEM extracellular domain peptide; not shown: His tag
T1 sequence (looked up): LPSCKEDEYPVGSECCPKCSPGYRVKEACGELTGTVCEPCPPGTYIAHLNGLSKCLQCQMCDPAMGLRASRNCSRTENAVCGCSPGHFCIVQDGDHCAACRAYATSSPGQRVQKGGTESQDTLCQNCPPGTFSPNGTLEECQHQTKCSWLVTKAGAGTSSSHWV

T2: HVEM on HVEM-positive melanoma cells (UniProt Q92956 39-283, limits assumed)
T2 sequence (looked up): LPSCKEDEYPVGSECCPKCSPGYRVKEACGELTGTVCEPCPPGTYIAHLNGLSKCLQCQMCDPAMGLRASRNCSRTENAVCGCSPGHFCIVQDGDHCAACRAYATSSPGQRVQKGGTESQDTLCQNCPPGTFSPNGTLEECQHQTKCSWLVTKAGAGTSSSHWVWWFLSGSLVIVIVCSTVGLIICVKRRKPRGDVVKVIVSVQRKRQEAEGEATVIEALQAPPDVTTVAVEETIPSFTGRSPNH

B1: H4 (antibody, human IgG4 S228P, kappa, V domains shown)
VH: QVQLVQSGGGLVQPGGSLRLSCAASGFTFSSYAMSWVRQAPGKGLEWVSNIYSNPNRTYYADSVEGRFTISRDNSKNTLYLQMNSLRAEDTAVYYCAKAPGDYTAYFDYWGQGTLVTVSS
VL: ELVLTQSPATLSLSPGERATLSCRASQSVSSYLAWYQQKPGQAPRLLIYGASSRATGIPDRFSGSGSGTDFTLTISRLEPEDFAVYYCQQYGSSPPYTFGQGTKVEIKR
modifications: N-linked glycosylation site (NXS/T; NRT) in CDR-H2 found to be glycosylated in the final antibody (FIG. 1)
notes: also called H4-CDR2; H4 antibody
B2: L18-H5 (antibody, human IgG4 S228P, kappa, V domains shown)
VH: B1 VH with Y52N, S53G, N54P, P55G, R57G
VL: ELVLTQSPATLSLSPGERATLSCRASQSVSSYLAWYQQKPGQAPRLLIYGASSRATGIPDRFSGSGSGTDFTLTISRLEPEDFAVYYCQQYGSYPPLTFGQGTKVEIKR
notes: combination of the L18 light chain and the H5 heavy chain; also called L18 (CDR3)-H5 (CDR2)
B3: H4-N55Q (antibody, human IgG4 S228P, kappa, V domains shown)
VH: B1 VH with N56Q
VL: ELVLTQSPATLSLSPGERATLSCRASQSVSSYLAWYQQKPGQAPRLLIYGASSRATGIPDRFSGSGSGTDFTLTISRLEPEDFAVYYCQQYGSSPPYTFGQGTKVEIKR
notes: H4 variant without the CDR-H2 glycosylation site; also called H4-N55Q-CDR2
B4: Par-K64E (antibody, human IgG4 S228P, kappa, V domains shown)
VH: B1 VH with N50A, Y52S, S53G, N54S, P55G, N56G, R57S
VL: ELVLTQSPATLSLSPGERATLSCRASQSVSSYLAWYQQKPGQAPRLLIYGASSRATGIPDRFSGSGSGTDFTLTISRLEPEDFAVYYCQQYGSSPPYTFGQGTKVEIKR
notes: also called Parental-K64E-VH-CDR2; Par-K64E antibody
B5: H4-E64K (antibody, human IgG4 S228P, kappa, V domains shown)
VH: B1 VH with E65K
VL: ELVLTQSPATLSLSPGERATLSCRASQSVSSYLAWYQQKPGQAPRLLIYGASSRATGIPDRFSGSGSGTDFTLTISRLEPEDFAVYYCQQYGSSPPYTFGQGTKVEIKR
notes: also called H4-E64K-CDR2
B6: H4-T57G (antibody, human IgG4 S228P, kappa, V domains shown)
VH: B1 VH with T58G
VL: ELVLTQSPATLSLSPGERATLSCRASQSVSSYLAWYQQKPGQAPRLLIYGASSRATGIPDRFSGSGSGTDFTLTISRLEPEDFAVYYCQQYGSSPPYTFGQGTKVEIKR
notes: H4 variant without the CDR-H2 glycosylation site; also called H4-T57G-CDR2
B7: H6 (antibody, human IgG4 S228P, kappa, V domains shown)
VH: B1 VH with N50G, Y52N, S53G, P55G, N56D, R57Y, E65K
VL: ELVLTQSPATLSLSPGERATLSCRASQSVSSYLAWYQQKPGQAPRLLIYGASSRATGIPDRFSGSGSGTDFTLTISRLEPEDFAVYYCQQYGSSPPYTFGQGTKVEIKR
notes: also called H6-CDR2
B8: L18 (antibody, human IgG4 S228P, kappa, V domains shown)
VH: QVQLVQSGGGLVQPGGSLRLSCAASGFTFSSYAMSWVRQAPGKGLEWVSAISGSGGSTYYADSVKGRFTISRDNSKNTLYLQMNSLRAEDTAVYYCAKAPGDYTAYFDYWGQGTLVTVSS
VL: B2 VL
notes: also called L18 (CDR3)
B9: H4-N55D (antibody, human IgG4 S228P, kappa, V domains shown)
VH: B1 VH with N56D
VL: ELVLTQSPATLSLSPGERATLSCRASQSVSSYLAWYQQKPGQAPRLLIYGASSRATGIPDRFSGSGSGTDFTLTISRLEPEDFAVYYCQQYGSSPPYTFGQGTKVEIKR
notes: H4 variant without the CDR-H2 glycosylation site; also called H4-N55D-CDR2
B10: H4-T57N (antibody, human IgG4 S228P, kappa, V domains shown)
VH: B1 VH with T58N
VL: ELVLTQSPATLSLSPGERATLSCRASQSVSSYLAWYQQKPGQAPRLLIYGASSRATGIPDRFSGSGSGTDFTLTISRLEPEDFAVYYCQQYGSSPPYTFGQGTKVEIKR
notes: H4 variant without the CDR-H2 glycosylation site; also called H4-T57N-CDR2
B11: H8 (antibody, human IgG4 S228P, kappa, V domains shown)
VH: B1 VH with N50A, Y52G, S53G, N54S, P55G, N56S, R57G, E65K
VL: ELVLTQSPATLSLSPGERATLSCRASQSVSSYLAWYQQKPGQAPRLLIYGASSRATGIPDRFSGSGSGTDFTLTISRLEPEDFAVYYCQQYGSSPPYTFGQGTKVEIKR
notes: also called H8-CDR2
B12: H5 (antibody, human IgG4 S228P, kappa, V domains shown)
VH: B1 VH with Y52N, S53G, N54P, P55G, R57G
VL: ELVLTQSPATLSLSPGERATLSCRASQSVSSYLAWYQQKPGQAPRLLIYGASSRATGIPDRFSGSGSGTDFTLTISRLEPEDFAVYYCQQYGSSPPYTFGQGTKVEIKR
notes: also called H5-CDR2
B13: H4-T57A (antibody, human IgG4 S228P, kappa, V domains shown)
VH: B1 VH with T58A
VL: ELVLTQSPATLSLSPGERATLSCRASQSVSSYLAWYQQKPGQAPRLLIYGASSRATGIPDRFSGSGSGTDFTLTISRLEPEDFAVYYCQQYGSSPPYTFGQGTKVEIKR
notes: H4 variant without the CDR-H2 glycosylation site; also called T57A antibody; T57A variant
B14: H4-T57E (antibody, human IgG4 S228P, kappa, V domains shown)
VH: B1 VH with T58E
VL: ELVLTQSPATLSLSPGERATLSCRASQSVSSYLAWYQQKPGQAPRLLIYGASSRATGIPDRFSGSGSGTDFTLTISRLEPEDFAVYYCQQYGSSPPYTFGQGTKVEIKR
notes: H4 variant without the CDR-H2 glycosylation site; also called H4-T57E-CDR2
B15: H4-N55E (antibody, human IgG4 S228P, kappa, V domains shown)
VH: B1 VH with N56E
VL: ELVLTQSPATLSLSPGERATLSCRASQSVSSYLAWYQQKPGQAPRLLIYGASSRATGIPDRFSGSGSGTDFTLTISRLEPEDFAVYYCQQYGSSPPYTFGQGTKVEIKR
notes: H4 variant without the CDR-H2 glycosylation site; also called H4-N55E-CDR2
B16: H4-N55S (antibody, human IgG4 S228P, kappa, V domains shown)
VH: B1 VH with N56S
VL: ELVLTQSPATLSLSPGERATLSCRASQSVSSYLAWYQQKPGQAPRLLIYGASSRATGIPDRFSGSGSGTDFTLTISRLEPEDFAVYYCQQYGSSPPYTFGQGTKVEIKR
notes: H4 variant without the CDR-H2 glycosylation site; also called H4-N55S-CDR2
B17: H4-N55G (antibody, human IgG4 S228P, kappa, V domains shown)
VH: B1 VH with N56G
VL: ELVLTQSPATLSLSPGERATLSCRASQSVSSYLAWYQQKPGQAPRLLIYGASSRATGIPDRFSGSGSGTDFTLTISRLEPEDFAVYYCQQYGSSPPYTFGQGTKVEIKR
notes: H4 variant without the CDR-H2 glycosylation site; also called H4-N55G-CDR2
B18: L18-H4 (antibody, human IgG4 S228P, kappa, V domains shown)
VH: B1 VH
VL: B2 VL
notes: combination of the L18 light chain and the H4 heavy chain; also called L18 (CDR3)-H4 (CDR2)
B19: human recombinant HVEM (hHVEM) (receptor, UniProt Q92956 39-202, looked up)
chain: T1 sequence (looked up)
notes: Recombinant protein coated at 2.5 ug/ml; also called recombinant hHVEM; hHVEM coated plates

Key:
His-tagged human HVEM [1] = biological target: T1, His-tagged human HVEM; test: Biacore 8K multi-cycle kinetics, purified antibody captured on Protein A, His-tagged human HVEM as analyte, 25 C
Description: (§1) Multi-Cycle Kinetics: Multicycle kinetic analysis was performed on purified antibodies. Kinetic experiments were performed at 25° C. on a Biacore 8K. HBS-P+0.1% BSA (Cytiva, Marlborough, USA) was used as running buffer. Purified antibodies were diluted to 1.0 μg/mL in running buffer and at the start of each cycle, loaded onto Fc2, Fc3 and Fc4 of a Protein A sensor chip (Cytiva, Marlborough, USA). Antibodies were captured at a flow rate of 10 μl/min to give an immobilisation level (RL) of ˜ 100 RU. The surface was then allowed to stabilise. Multi-cycle kinetic data was obtained using His-tagged human HVEM as the analyte injected at a flow rate of 50 μl/min. A eight point, two-fold dilution range from 0.78 nM to 100 nM of antigen were prepared in running buffer. For each concentration, the association phases were monitored for 180 seconds and the dissociation phase was measured for 300 seconds. Regeneration of the sensor chip surface was conducted between cycles using two injections of 10 mM Glycine-HCl, pH 1.5.
(§2) First a multicycle kinetics Biacore affinity assay was performed to confirm the improved binding of the H4, T57A, T57G and T57N antibodies (FIG. 3A). Each purified antibody was captured to a Protein A sensor chip before increasing concentrations of antigen (hHVEM) were injected. The fold improvement in affinity was calculated by dividing the average KD of the parent antibody by the average KD for each variant antibody. […] A single-cycle kinetic Biacore assay was also performed with the H4 N55G, H4 N55S, H4 N55D, H4 N55Q, H4 N55E, and H4 T57E antibodies (FIG. 3B).

His-tagged human HVEM [2] = biological target: T1, His-tagged human HVEM; test: Biacore KD to HVEM extracellular domain, IgG captured on Protein A, His-tagged HVEM as analyte; reference: Parental
Description: Affinity maturation: To improve binding affinity, the parental antibody was affinity matured using phage display. Heavy and/or light chain CDRs of variable domain regions were semi-randomized using oligonucleotide mutagenesis. Selections were performed using separate heavy and light chain phage libraries and decreasing concentrations of biotinylated His-tagged HVEM target to select the highest affinity binders from each library. Following four rounds of selections individual clones were screened as scFv supematants in a binding ELISA to identify lead candidates with signals greater than the parental scFv expressed in the same assay. Identified hits were converted into IgG and cloned into mammalian expression vectors. Plasmids encoding the affinity improved variants paired with the appropriate parental heavy or light chain, as well as the parental antibody, were transiently transfected small scale into HEK EBNA adherent cells (LGC Standards, Teddington, UK). At five days post-transfection, the supernatants were harvested, quantified by Octet (serial no. FB-30203) and analysed by Biacore single cycle kinetics.
(§3) Single Cycle Kinetics: To assess the binding of the affinity matured IgGs, single cycle kinetic analysis was performed on supernatants using a Biacore T200 (serial no. 1909913). Kinetic experiments were performed at 25° C. running Biacore T200 Control software V2.0.1 and Evaluation software V3.0 (Cytiva, Marlborough, USA). Antibodies were diluted in HBS-P+(Cytiva, Marlborough, USA) containing 1 mg/ml BSA to a final concentration of 1.0 μg/ml. Antibodies were loaded onto Fc2, Fc3 and Fc4 of the Protein A capture Sensor chip (Cytiva, Marlborough, USA). IgGs were captured at a flow rate of 10 μl/min to give an immobilisation level (RL) of ˜50 RU. The surface was then allowed to stabilize. Single cycle kinetics data was obtained using His-tagged HVEM (Acro Biosystems, Newark, USA) as the analyte at a flow rate of 40 μl/min. A two-fold dilution range from […] to 100 nM His-tagged antigen without regeneration between each concentration was used.

His-tagged human HVEM [3] = biological target: T1, His-tagged human HVEM; test: Biacore 8K multi-cycle kinetics, purified antibody captured on Protein A, His-tagged human HVEM as analyte; reference: Parental
Description: as §1, §2

His-tagged human HVEM [4] = biological target: T1, His-tagged human HVEM; test: Biacore T200 single-cycle kinetics, antibody supernatant captured on Protein A, His-tagged HVEM as analyte; reference: Parental
Description: as §3, §2

His-tagged human HVEM [5] = biological target: T1, His-tagged human HVEM; test: Biacore T200 single-cycle kinetics, antibody supernatant captured on Protein A, His-tagged HVEM as analyte, 25 C
Description: as §3, §2

[6] = biological target: T2, HVEM on HVEM-positive melanoma cells; test: cell-based or functional assay
[7] = biological target: B19; test: blocking ELISA: antibody titrated on plate-bound hHVEM in the presence of hBTLA, bound hBTLA detected (OD); the IC50 column has no unit, µg/ml is the unit of the x axis
hLIGHT-His = biological target: T3, hLIGHT-His (human, UniProt O43557 59-240); test: ELISA, plate coated with hHVEM, antibody 10 µg/ml present, hLIGHT-His 2.5 µg/ml, detection with anti-LIGHT
T3 construct: Named only as hLIGHT-His; also called recombinant hLIGHT; not shown: exact limits of the vendor construct
T3 sequence (O43557 59-240 limits assumed): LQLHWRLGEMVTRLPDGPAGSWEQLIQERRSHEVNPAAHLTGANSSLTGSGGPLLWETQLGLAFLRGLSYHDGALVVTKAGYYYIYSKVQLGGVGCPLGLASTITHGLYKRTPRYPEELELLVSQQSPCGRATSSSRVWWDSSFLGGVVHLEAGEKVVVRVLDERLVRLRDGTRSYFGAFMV

B1
Kd (His-tagged human HVEM [1]): 4.65 nM
Fold improvement vs parental (KD) (His-tagged human HVEM [2]): 9.57 fold
Fold improvement (KD parent / KD variant) (His-tagged human HVEM [3]): 14 fold

B2
Fold improvement vs parental (KD) (His-tagged human HVEM [2]): 1.51 fold

B3
Fold improvement (KD parent / KD variant) (His-tagged human HVEM [4]): 2.59 fold
Fold improvement vs parental (KD) (His-tagged human HVEM [2]): 2.59 fold
Kd (His-tagged human HVEM [5]): 21.7 nM

B4
Fold improvement vs parental (KD) (His-tagged human HVEM [2]): 3.14 fold

B5
Fold improvement vs parental (KD) (His-tagged human HVEM [2]): 2.15 fold

B6
Kd (His-tagged human HVEM [1]): 7.27 nM
increase in specific killing events (Caspase 3/7) in melanoma cells cocultured with autologous TILs, as compared to the isotype control, after nine hours [6]: 19%
Fold improvement vs parental (KD) (His-tagged human HVEM [2]): 6.24 fold
Fold improvement (KD parent / KD variant) (His-tagged human HVEM [3]): 8.97 fold

B7
Fold improvement vs parental (KD) (His-tagged human HVEM [2]): 1.53 fold

B8
Fold improvement vs parental (KD) (His-tagged human HVEM [2]): 1 fold

B9
Fold improvement (KD parent / KD variant) (His-tagged human HVEM [4]): 3.93 fold
Fold improvement vs parental (KD) (His-tagged human HVEM [2]): 3.93 fold
Kd (His-tagged human HVEM [5]): 14.3 nM

B10
Kd (His-tagged human HVEM [1]): 1.94 nM
increase in specific killing events (Caspase 3/7) in melanoma cells cocultured with autologous TILs, as compared to the isotype control, after nine hours [6]: 9%
Fold improvement vs parental (KD) (His-tagged human HVEM [2]): 23.5 fold
Fold improvement (KD parent / KD variant) (His-tagged human HVEM [3]): 33.6 fold

B11
Fold improvement vs parental (KD) (His-tagged human HVEM [2]): 1.3 fold

B12
Fold improvement vs parental (KD) (His-tagged human HVEM [2]): 5.05 fold

B13
Kd (His-tagged human HVEM [1]): 2.17 nM
increase in specific killing events (Caspase 3/7) in melanoma cells cocultured with autologous TILs, as compared to the isotype control, after nine hours [6]: 19%
Fold improvement vs parental (KD) (His-tagged human HVEM [2]): 20.7 fold
IC50 [7]: 0.53 µg/mL
Fold improvement (KD parent / KD variant) (His-tagged human HVEM [3]): 30.1 fold

B14
Fold improvement (KD parent / KD variant) (His-tagged human HVEM [4]): 2.4 fold
Fold improvement vs parental (KD) (His-tagged human HVEM [2]): 2.4 fold
Kd (His-tagged human HVEM [5]): 23.4 nM

B15
Fold improvement (KD parent / KD variant) (His-tagged human HVEM [4]): 2.73 fold
Fold improvement vs parental (KD) (His-tagged human HVEM [2]): 2.73 fold
Kd (His-tagged human HVEM [5]): 20.6 nM

B16
Fold improvement (KD parent / KD variant) (His-tagged human HVEM [4]): 2.67 fold
Fold improvement vs parental (KD) (His-tagged human HVEM [2]): 2.67 fold
Kd (His-tagged human HVEM [5]): 21 nM

B17
Fold improvement (KD parent / KD variant) (His-tagged human HVEM [4]): 4.29 fold
Fold improvement vs parental (KD) (His-tagged human HVEM [2]): 4.29 fold
Kd (His-tagged human HVEM [5]): 13.1 nM

B18
Fold improvement vs parental (KD) (His-tagged human HVEM [2]): 2.57 fold

B19
binding result (hLIGHT-His): binds
